Here are results for five molecules from publication PMC9870903, “Structural mechanism of BRD4-NUT and p300 bipartite interaction in propagating aberrant gene transcription in chromatin in NUT carcinoma” (Nature Communications, 2023).

Read-outs that look alike come from different tables or passages of the source.

The target of series [1] is p300 TAZ2 domain (residues 1723–1812) (UniProt Q09472). Kind of series: NMR titration; 1H-15N HSQC of 15N-TAZ2 (50 μM); NUT fragment or peptide titrated from 7.8 μM to 1000 μM; 200 mM phosphate buffer pH 6.3; overlays at TAZ2/NUT molar ratio 1:3; single-site binding model.
The target is the same in series [2]. Described as above. This is another data set of the same source.
Series [3] deals with the molecule itself. Kind of series: SEC; Superdex 200 Increase 10/300 GL in PBS, 0.3 ml/min; samples 0.8 mM; MBP-TAZ2/His-F1c in 1:1 mix ratio; calibrated with protein standards. In general terms: Size exclusion chromatography separates by hydrodynamic size, large species first.

Take “NUT fragment of residues 419–470 (as added in NMR) (from UniProt Q86Y26 419-470) (domain or fragment)”: the Kd – broadly, the free concentration of one partner at which half of the binding sites on the other are occupied at equilibrium, for simple one-to-one binding – in series [1] turned out to be 36 µM.
As to “NUT fragment of residues 377–418 (as added in NMR) (from UniProt Q86Y26 377-418) (domain or fragment)”, the Kd in series [1] worked out at 32 µM.
For the molecule FLADLLSPEKQRDPLALIEE [F1c peptide (residues 435–454)], the dissociation constant (Kd) in series [2] stood at 958 µM.

B1: His-F1c (residues 346–592) (domain or fragment, UniProt Q86Y26 346-592, looked up)
chain: RRQRKAQRPPAPEAPKEIPPEAVKEYVDIMEWLVGTHLATGESDGKQEEEGQQQEEEGMYPDPGLLSYINELCSQKVFVSKVEAVIHPQFLADLLSPEKQRDPLALIEELEQEEGLTLAQLVQKRLMALEEEEDAEAPPSFSGAQLDSSPSGSVEDEDGDGRLRPSPGLQGAGGAACLGKVSSSGKRAREVHGGQEQALDSPRGMHRDGNTLPSPSSWDLQPELAAPQGTPGPLGVERRGSGKVINQ
notes: also called free His-F1c; source: purified; not shown: His, N-terminal, kept
Take B1: in series [3], the stoichiometry N – broadly, a count of units in the complex or per binding partner – was found to be 5.
As to GMYPDPGLLSYINELC [F1c peptide (residues 403–418)], the equilibrium dissociation constant (Kd) in series [2] was found to be 115 µM.
